Measurements from US20240309076A1.

Molecular target: recombinant full-length human Tau (human) (UniProt P10636)
Experiment: indirect ELISA, Tau coated on the plate

B1: NI-502.4P3 (antibody, V domains shown)
VH: EVQLVQSGAEVKKPGESLKISCKVSGYDFSKYWIGWVRQMPGKGLEWMGLIYPGDSDTRYSPSLEGQVSISADKSISAAYLQFSSLKASDSAMYYCVRKGYSAYLGGWFDPWGQGTLVTVSS
VL: DIQLTQSPDSLAASLGERVTINCRSSQNIFYNSNNKNFLAWYQQKAGQSPKLLIYWASTRESGVPDRFSGSGSGTDFTLTISGLQAGDVAVYFCQQYFTDAPTFGGGTKVEIK
B1 was tested. Which EC50 did it give?
Its EC50 is 15 nM.
